According to publication doi:10.1101/2021.05.05.442822:

How the values were obtained:
H3K9me0 peptide = experiment: FP; settings: complex
[1] = molecular target: G9a ANK-SET, N-terminally 6xHis-tagged (His:G9a) or N-terminally Maltose Binding Protein tagged (MBP:G9a) (human); experiment: pull-down
[2] = molecular target: fluoresceinated H3 1-20 K9me2 peptide (UniProt P68431); experiment: fluorescence polarisation
[3] = molecular target: unmethylated (H3K9me0) mononucleosome; experiment: fluorescence polarisation
[4] = molecular target: G9a ANK-SET, tag cleaved (human); experiment: SEC-MALS

G9a ANK-SET homodimer, sequence (Q96KQ7 whole entry, looked up): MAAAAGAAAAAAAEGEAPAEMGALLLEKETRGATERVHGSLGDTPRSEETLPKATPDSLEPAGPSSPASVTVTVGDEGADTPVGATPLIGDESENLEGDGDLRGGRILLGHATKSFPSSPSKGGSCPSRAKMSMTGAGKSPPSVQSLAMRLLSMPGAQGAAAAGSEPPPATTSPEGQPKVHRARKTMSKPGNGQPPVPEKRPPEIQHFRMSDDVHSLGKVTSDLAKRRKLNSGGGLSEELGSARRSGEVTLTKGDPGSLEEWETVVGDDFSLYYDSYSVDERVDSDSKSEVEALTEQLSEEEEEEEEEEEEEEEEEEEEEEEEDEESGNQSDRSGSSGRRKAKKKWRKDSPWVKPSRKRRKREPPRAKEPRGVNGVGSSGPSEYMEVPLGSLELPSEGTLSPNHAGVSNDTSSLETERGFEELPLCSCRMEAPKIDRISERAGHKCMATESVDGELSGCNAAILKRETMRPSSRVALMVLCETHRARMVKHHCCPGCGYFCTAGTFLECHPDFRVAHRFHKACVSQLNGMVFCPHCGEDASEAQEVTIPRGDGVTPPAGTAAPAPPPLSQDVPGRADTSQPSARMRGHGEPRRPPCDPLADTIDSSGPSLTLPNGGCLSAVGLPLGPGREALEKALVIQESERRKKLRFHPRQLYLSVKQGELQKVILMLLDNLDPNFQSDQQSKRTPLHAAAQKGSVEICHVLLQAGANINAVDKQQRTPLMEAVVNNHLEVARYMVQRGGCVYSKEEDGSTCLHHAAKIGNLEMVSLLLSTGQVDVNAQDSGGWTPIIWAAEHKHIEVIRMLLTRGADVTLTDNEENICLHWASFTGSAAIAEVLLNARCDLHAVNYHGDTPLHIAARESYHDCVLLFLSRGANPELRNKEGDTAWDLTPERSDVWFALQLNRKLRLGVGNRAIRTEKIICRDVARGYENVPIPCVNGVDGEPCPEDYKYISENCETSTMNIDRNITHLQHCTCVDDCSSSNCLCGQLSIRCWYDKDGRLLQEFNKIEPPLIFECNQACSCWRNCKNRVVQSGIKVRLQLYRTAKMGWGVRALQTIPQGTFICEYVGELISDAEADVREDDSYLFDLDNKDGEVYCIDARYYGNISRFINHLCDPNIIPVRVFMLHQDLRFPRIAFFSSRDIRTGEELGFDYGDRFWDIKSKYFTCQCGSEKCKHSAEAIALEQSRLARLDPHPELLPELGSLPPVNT

G9a ANK-SET homodimer (from UniProt Q96KQ7)
Kd (H3K9me0 peptide): 100 µM

G9a ANK-SET, N-terminally 6xHis-tagged (His:G9a) or N-terminally Maltose Binding Protein tagged (MBP:G9a) (domain or fragment)
stoichiometry N [1]: 2

GLP ANK-SET homodimer (complex)
fold reduced binding [2]: 12.5 times | Kd [3]: 26.3 µM

GLP ANK-SET, N-terminally Maltose Binding Protein tagged (MBP:GLP) (domain or fragment)
stoichiometry N [1]: 1

GLP ANK-SET, tag cleaved (domain or fragment)
stoichiometry N [4]: 1
